Where two headings read alike, the source gives them in different places. Ends that are not written are not given here.
T1: human GPCR135 (human, UniProt Q9NSD7 1-469)
T1 sequence: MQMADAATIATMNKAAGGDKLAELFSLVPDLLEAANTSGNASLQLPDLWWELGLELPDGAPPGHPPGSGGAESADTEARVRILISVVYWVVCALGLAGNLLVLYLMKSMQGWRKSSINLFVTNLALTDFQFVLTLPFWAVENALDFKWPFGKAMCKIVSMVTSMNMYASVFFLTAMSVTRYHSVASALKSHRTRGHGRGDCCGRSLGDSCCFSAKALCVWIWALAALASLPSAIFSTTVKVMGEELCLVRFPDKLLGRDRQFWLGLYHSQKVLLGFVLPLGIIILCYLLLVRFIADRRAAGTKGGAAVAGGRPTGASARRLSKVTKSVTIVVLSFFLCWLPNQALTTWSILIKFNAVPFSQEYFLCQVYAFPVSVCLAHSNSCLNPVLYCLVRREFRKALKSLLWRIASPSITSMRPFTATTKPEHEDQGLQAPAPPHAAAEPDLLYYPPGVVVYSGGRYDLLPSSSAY

T2: human LGR7 (human, UniProt Q9HBX9 1-757)
T2 sequence (looked up): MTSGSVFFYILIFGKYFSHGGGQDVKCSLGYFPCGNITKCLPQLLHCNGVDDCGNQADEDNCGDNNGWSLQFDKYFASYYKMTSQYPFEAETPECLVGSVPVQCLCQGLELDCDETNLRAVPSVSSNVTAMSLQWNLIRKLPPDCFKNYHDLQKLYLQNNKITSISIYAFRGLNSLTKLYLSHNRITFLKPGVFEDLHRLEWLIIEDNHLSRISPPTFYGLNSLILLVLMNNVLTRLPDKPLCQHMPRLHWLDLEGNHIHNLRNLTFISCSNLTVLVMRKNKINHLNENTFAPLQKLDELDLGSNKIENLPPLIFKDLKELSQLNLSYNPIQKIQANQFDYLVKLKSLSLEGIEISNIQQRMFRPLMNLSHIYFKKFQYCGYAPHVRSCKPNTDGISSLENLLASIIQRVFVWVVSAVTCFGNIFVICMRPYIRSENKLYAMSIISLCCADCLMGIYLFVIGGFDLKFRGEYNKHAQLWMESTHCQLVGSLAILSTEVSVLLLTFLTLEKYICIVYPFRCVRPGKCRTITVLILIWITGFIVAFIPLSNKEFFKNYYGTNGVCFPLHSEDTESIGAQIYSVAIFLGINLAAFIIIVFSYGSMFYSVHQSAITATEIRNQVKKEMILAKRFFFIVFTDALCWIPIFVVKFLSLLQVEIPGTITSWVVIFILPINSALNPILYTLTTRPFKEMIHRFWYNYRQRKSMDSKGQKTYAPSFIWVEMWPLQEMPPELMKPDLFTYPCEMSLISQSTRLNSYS


Legend:
human GPCR135 [1] = target: T1, human GPCR135; test: cell-based or functional assay
human GPCR142 [2] = target: T3, human GPCR142 (human, UniProt Q8TDU9 1-374); test: cell-based or functional assay
human LGR7 [3] = target: T2, human LGR7; test: cell-based or functional assay
human LGR8 [4] = target: T4, human LGR8 (human, UniProt Q8WXD0 1-754); test: cell-based or functional assay
human LGR7 [5] = target: T2, human LGR7; test: cell-based or functional assay; remark: listed apart in the source
human GPCR135 [6] = target: T1, human GPCR135; test: cell-based or functional assay; remark: listed apart in the source
human GPCR142 [7] = target: T3, human GPCR142; test: cell-based or functional assay; remark: listed apart in the source
human LGR7 [8] = target: T2, human LGR7; test: cell-based or functional assay; remark: listed apart in the source
human LGR8 [9] = target: T4, human LGR8; test: cell-based or functional assay; remark: listed apart in the source
human LGR8 [10] = target: T4, human LGR8; test: competition with [125I]-INSL3 (100 pM), live COS-7 cells with human LGR8
Description: (§1) Different unlabeled peptides were used in the binding assay as the competitors. […] Data represent mean±SEM (n=3).
(§2) Radioligand binding assays for LGR7 and LGR8 were performed using live COS-7 cells transiently transfected with LGR7 or LGR8 expression plasmids in 15-cm culture dishes using LipofectAmine (Invitrogen). Two days after transfection, the transfected cells were detached from the 15-cm culture dished using phosphate buffered saline (PBS) plus 10 mM EDTA, seeded into 96-well opaque poly-D-lysine coated culture plates and used for radioligand binding assays. […] [¹²⁵I]-labeled tracer was added in binding reactions at a final concentration of 100 pM in binding buffer containing DMEM plus 50 mM HEPES and 1% bovine serum albumin. […] The binding mixtures were incubated at room temperature for 1 hour. The unbound radioligand was removed by aspiration of the binding buffer. The cells were washed with PBS. The bound radioligand was counted in a scintillation counter (TopCount/NTX). The results were analyzed using Prism 3.0 program (Graphpad, San Diego, Calif.).

human LGR7 [11] = target: T2, human LGR7; test: competition with [125I]-relaxin-3 (100 pM), live COS-7 cells with human LGR7
Description: as §1, §2

human GPCR135 [12] = target: T1, human GPCR135; test: competition with [125I]-relaxin-3 (100 pM), COS-7 membranes with human GPCR135
Description: as §1
(§3) Peptides for competition binding studies were added to the binding mix (final volume: 200 μl) in binding buffer [50 mM Tris-HCl, pH 7.5, 5 mM EDTA, 1% bovine serum albumin, 0.1% protease inhibitor cocktails (Sigma)]. The binding mixtures were incubated at room temperature for 1 hour, filtered through GFC plates (Packard) pre-saturated with 0.3% Polyethylenimine (Sigma), and washed with cold washing buffer (50 mM Tris-HCl, pH 7.5, 5 mM EDTA).

human GPCR142 [13] = target: T3, human GPCR142; test: competition with [125I]-relaxin-3 (100 pM), COS-7 membranes with human GPCR142
Description: as §1, §3

human GPCR135 [14] = target: T1, human GPCR135; test: cell-based or functional assay; remark: listed apart in the source
human GPCR142 [15] = target: T3, human GPCR142; test: cell-based or functional assay; remark: listed apart in the source
human LGR7 [16] = target: T2, human LGR7; test: radioligand competition, live COS-7 cells with human LGR7
Description: as §1, §2

human LGR8 [17] = target: T4, human LGR8; test: competition with [125I]-INSL3 (100 pM) on live COS-7 cells expressing human LGR8; ND denotes no activity was detected
Description: as §1, §2

human LGR8 [18] = target: T4, human LGR8; test: cell-based or functional assay; remark: listed apart in the source
human LGR8 [19] = target: T4, human LGR8; test: competition with [125I]-INSL3, live COS-7 cells with human LGR8; this end tied to R3/I3 by Table 1
Description: as §1, §2

T3 sequence (Q8TDU9 whole entry L329S): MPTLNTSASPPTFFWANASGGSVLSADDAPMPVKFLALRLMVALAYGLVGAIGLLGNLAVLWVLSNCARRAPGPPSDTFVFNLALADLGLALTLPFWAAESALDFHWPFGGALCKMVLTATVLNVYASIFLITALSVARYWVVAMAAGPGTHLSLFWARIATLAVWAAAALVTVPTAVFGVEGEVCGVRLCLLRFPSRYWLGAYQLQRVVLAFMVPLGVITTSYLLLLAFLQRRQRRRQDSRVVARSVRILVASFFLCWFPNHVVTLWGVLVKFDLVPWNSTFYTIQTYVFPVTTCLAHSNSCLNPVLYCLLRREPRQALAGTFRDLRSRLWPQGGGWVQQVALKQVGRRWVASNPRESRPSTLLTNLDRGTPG
T4 sequence (Q8WXD0 whole entry): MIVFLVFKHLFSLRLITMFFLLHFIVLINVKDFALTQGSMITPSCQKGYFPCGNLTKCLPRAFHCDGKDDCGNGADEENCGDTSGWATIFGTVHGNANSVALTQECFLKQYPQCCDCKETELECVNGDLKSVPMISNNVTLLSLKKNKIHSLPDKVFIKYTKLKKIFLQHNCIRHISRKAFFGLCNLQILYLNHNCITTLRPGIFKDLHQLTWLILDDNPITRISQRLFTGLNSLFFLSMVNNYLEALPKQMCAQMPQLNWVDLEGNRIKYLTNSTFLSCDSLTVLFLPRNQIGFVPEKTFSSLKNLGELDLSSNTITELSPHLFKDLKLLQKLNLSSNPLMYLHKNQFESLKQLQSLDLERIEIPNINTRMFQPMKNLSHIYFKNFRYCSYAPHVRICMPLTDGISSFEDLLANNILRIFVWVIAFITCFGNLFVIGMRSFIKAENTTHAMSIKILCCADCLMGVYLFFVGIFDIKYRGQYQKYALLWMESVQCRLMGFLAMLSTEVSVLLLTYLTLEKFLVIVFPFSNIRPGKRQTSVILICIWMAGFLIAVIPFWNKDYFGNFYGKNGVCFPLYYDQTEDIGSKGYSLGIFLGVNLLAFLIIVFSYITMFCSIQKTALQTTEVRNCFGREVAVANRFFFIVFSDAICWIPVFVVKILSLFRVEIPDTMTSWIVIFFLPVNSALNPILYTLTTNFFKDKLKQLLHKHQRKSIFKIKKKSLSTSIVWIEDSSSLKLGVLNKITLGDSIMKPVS

| Molecule | EC50, ligand stimulated β-galactosidase expression (human LGR7 [5]) | EC50, inhibition of forskolin stimulated β-galactosidase expression (human GPCR135 [6]) | EC50, inhibition of forskolin stimulated β-galactosidase expression (human GPCR142 [7]) | EC50, ligand stimulated β-galactosidase expression (human LGR7 [8]) | EC50, ligand stimulated β-galactosidase expression (human LGR8 [9]) | IC50 (human LGR8 [10]) | IC50 (human LGR7 [11]) | IC50 (human GPCR135 [12]) | IC50 (human GPCR142 [13]) | further results |
| --- | --- | --- | --- | --- | --- | --- | --- | --- | --- | --- |
| human relaxin-3 B-chain (from UniProt Q8WXF3 26-52) (peptide) |  |  |  |  |  |  |  |  |  | EC50, inhibition of forskolin-stimulated β-galactosidase activity (human GPCR135 [1]): 88 nM; EC50, inhibition of forskolin-stimulated β-galactosidase activity (human GPCR142 [2]): 125 nM |
| porcine relaxin (from UniProt P01348 25-182) (ligand) |  |  |  |  |  |  |  |  |  | EC50, stimulation of β-galactosidase activity (human LGR7 [3]): 0.25 nM; EC50, induction of β-galactosidase activity (human LGR8 [4]): 1.5 nM |
| RAAPYGVRLCGREFIRAVIFTCGGSRWPYVALFEKCCLIGCTKRSLAKYC (ligand, disulfide (positions not given here); also: two chains (relaxin-3 B-chain, relaxin-1 A-chain), disulfide-linked, chain break not marked, Mature two-chain peptide: human relaxin-3 B-chain disulfide-linked to human relaxin-1 A-chain; Made in COS-7 cells with furin; the FLAG tag was removed with enterokinase) [human relaxin-3/relaxin-1 chimeric polypeptide (R3/R1), mature] | 1 to 5 nM | 1.8 nM | 2.2 nM | 4.5 nM | > 1000 nM | > 1000 nM | 5.1 nM | 2.9 nM | 2.6 nM |  |
| RAAPYGVRLCGREFIRAVIFTCGGSRWGYSEKCCLTGCTKEELSIAC (ligand, disulfide (positions not given here); also: two chains (relaxin-3 B-chain, INSL6 A-chain), disulfide-linked, chain break not marked, Mature two-chain peptide: human relaxin-3 B-chain disulfide-linked to human INSL6 A-chain; FLAG tag removed) [human relaxin-3/INSL6 chimeric polypeptide (R3/I6), mature] | 10 nM | 8.4 nM | 11.2 nM | 13.7 nM |  |  | 12.9 nM | 9.5 nM | 11.3 nM | EC50, inhibition of forskolin stimulated β-galactosidase expression (human GPCR135 [14]): ~10 nM; EC50, inhibition of forskolin stimulated β-galactosidase expression (human GPCR142 [15]): ~10 nM; IC50 (human LGR7 [16]): 15 nM; binding result (human LGR8 [17]): no binding |
| human INSL3 (ligand, ends and bridges not checked; also: 125I-labelled form used as tracer, site not given here) PTPEMREKLCGHHFVRALVRVCGGPRWSTEANPARYCCLSGCTQQDLLTLC |  |  |  |  |  |  |  |  |  | EC50, induction of β-galactosidase activity (human LGR8 [18]): 0.16 nM |
| human relaxin-3/relaxin-2 chimeric polypeptide (R3/R2), mature (ligand, disulfide (positions not given here); also: two-chain peptide (relaxin-3 B chain, relaxin-2 A chain), disulfide-linked, places not given here, Mature two-chain peptide: human relaxin-3 B-chain disulfide-linked to human relaxin-2 A-chain; FLAG tag removed) RAAPYGVRLCGREFIRAVIFTCGGSRWQLYSALANKCCHVGCTKRSLARFC | 1 to 5 nM | 1.1 nM | 1.4 nM | 1.1 nM | 575 nM | 615 nM | 1.5 nM | 1.2 nM | 1.8 nM | EC50, ligand stimulated β-galactosidase expression (human LGR8 [18]): ~600 nM |
| RAAPYGVRLCGREFIRAVIFTCGGSRWNPARYCCLSGCTQQDLLTLC (ligand, disulfide (positions not given here); also: two chains (relaxin-3 B-chain, INSL3 A-chain), disulfide-linked, chain break not marked, Mature two-chain peptide: human relaxin-3 B-chain disulfide-linked to human INSL3 A-chain; FLAG tag removed) [human relaxin-3/INSL3 chimeric polypeptide (R3/I3), mature] |  | 2.2 nM | 2.9 nM | 2.5 nM | 258 nM | 475 nM | 2.3 nM | 2.3 nM | 3.5 nM | EC50, ligand stimulated β-galactosidase expression (human LGR8 [18]): ~300 nM; IC50 (human LGR8 [19]): 500 nM |

Reference: patent US20080051336A1 (Janssen / Centocor, published 2008)
